Assay in all cases: SPR competition: 4 nM TGFβ pre-mixed with TGFβ-RIIb-Fc, injected over immobilised XPA.42.089 (competitor)
Assay [1] has as its target TGFβ1 (human) (UniProt P01137).
Assay [2] addresses TGFβ2 (human) (UniProt P61812).
In assay [3] the target is TGFβ3 (human) (UniProt P10600).

Experimental findings from US20210355204A1 are described below.

“TGFβ-RIIb-Fc recombinant receptor (from UniProt P37173 23-184) (Fc fusion)”: the average RU of TGFβ binding is -0.316 RU in assay [1], 38.2 RU in assay [2] and -0.378 RU in assay [3].
